Laboratory results published in paper PMC9519379 (Cell Reports Medicine, 2022).
Values joined by “and” are separate entries in the source; they are usually repeats but may differ in a detail not shown here. Identical values can stand only once.

Biological target: the molecule itself

B1: H84T-banana lectin (H84T-BanLec) (designed binder)
chain: MNGAIKVGAWGGNGGSAFDMGPAYRIISVKIFSGDVVDAVDVTFTYYGKTETRHFGGSGGTPHEIVLQEGEYLVGMKGEFGNYTGVVVVGKLGFSTNKKSYGPFGNTGGTPFSLPIAAGKISGFFGRGGDFIDAIGVYLEP
stoichiometry N: 2 and 4
